Here are results for six molecules from patent publication US6903185.

Data set [1] addresses T1, Zif268 (three-finger peptide) (UniProt P08046 P08046:333-421). Nature of the data set: cell_activity; 293 cells.
Data set [2] deals with T1, Zif268 (three-finger peptide). Nature of the data set: EMSA; pH 7.0, 100 mM NaCl, 5 mM MgCl2, Zn, room temp.
Data set [3] has the same target. Nature of the data set: EMSA; room temp.

B1: N/Z site in luciferase reporter promoter (dsDNA)
DNA 1: AAGGGTTCAGGCGTGGGCG
DNA 2: CGCCCACGCCTGAACCCTT
B1: the activity in data set [1] amounted to 8.9 fold repression.

B2: NZ site (dsDNA)
DNA 1: TCTGCAAGGGTTCAGCGTGGGCGGTAAG
DNA 2: CTTACCGCCCACGCTGAACCCTTGCAGA
Take B2: the Kd in data set [2] is 0.012 nM.

B3: N/Z site (dsDNA)
DNA 1: TCTGCAAGGGTTCAGGCGTGGGCGGTAAG
DNA 2: CTTACCGCCCACGCCTGAACCCTTGCAGA
B3 showed a dissociation constant Kd in data set [3] of 0.014 nM.

B4: N//Z site (dsDNA)
DNA 1: TCTGCAAGGGTTCAGTGCGTGGGCGGTAAG
DNA 2: CTTACCGCCCACGCACTGAACCCTTGCAGA
Turning to B4, in data set [3], binding was characterised by a dissociation constant (Kd) of 0.014 nM.

B5: N//Z site in luciferase reporter promoter (dsDNA)
DNA 1: AAGGGTTCAGTGCGTGGGCG
DNA 2: CGCCCACGCACTGAACCCTT
In data set [1], B5 gave an activity of 15 fold repression.

B6: Z site in luciferase reporter promoter (dsDNA)
DNA 1: GCGTGGGCG
DNA 2: CGCCCACGC
In the case of B6, in data set [1], the activity came out at 13 fold repression.
